Kd data for one molecule are collected here from paper PMC7423246, “A Peptide–Lectin Fusion Strategy for Developing a Glycan Probe for Use in Various Assay Formats” (Chemosensors (Basel, Switzerland), 2019).

The target in the assay is HIV coat protein gp120 (oligomannose bearing) (HIV (Human Immunodeficiency Virus), UniProt P04578 33-511, high-mannose-type N-glycans (oligomannose), sites not stated). As to the kind of experiment: MST; NT-647 labeled PFA held constant, serial dilution of gp120, in 0.1% PBST; 'effective' binding affinity. The following applies: both partners purified.

B1: NT-647 labeled PFA (natural protein)
chain: MSKYAVANQWGGSSAPWHPGGTWVLGARDNQNVVAIEIKSGDGGKSFTGTMTYAGEGPIGFKAQRTGQNQYNVENQWGGNDAPWHPGGKWVIGGRDNQNVIALSVTSSDGGKNLSGTNTYANEGPIGFRGQIEVSHPQAPF
modifications: NT-647 fluorophore on amines (amine-reactive NT-647-NHS labelling kit)
Consider B1, for which the dissociation constant Kd (commonly the equilibrium constant for the complex coming apart) was determined as 4.1 ± 1.4 nM.
